Measurements reported in US20210277110A1 (Janssen / Centocor, published 2021).
Like-named read-outs stand apart in the source and are kept apart here.

What was measured:
[1] = biological target: T1, cyno TIM-3 on transfected cells (cyno, UniProt A0A2K5U3G7 22-294); assay: binding to cells transfected with cyno TIM-3
T1 construct: whole, on cells; also called Cyno cells
T1 sequence: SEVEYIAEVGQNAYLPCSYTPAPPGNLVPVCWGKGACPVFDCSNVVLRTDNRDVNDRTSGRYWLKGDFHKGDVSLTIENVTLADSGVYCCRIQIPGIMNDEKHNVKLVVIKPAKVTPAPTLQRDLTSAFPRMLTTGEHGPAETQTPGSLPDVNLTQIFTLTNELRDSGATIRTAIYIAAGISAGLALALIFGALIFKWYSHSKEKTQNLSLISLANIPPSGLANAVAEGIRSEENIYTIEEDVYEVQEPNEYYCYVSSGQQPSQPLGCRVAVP

[2] = biological target: T2, Full length human TIM-3 on transfected cells (human, UniProt Q8TDQ0 22-301); assay: binding to cells transfected with human TIM-3
T2 construct: also called Human cells

[3] = biological target: T3, recombinant human TIM-3-Fc fusion protein (huTIM-3-Fc) (human, UniProt Q8TDQ0 22-200); assay: competition ELISA on coated Fc-TIM-3, competitor galectin-9
T3 construct: range 22-200; Bought from R&D Systems (NS0-derived); Deglycosylated for HDX-MS; also called recombinant human Fc-TIM-3 chimera; TIM-3 IgG1 Fc Chimera; not shown: IgG1 Fc of the bought chimera

[4] = biological target: T4, Full length human PD1 (huPD1) on cells (human, UniProt Q15116 25-288); assay: flow cytometry, PHA-stimulated Jurkat cells
T4 construct: on T cells of human donors in the MLR and CMV assays (functional); also called PD-1 on Jurkat cells
Procedure: (§1) Jurkat cells were stimulated overnight with 20 ng/ml of PHA, harvested, washed, and checked for viability. The cells were then incubated at 6-10° C. for 45-60 minutes with various concentrations of test antibodies, washed and incubated at 6-10° C. for 45-60 minutes with FITC-labeled goat anti-human IgG. The cells were washed and fixed with BD Cytofix, refrigerated overnight and analyzed on a MACSQuant flow cytometer. The percentage of PD-1 positive cells at each antibody concentration was plotted vs log of the antibody concentration and EC₅₀ values were generated in Prism.

[5] = biological target: T5, Extracellular domain of human PD1 (huPD1-ECD) (human, UniProt Q15116 25-169, biotinylated in the ligand inhibition assay (sites not given)); assay: SPR ProteOn, captured mAb, huPD1-ECD analyte
T5 construct: Expressed with a hexahistidine tag or as Fc fusion; also called biotinylated PD-1

[6] = biological target: T6, Extracellular domain of cyno PD1 (cPD1-ECD) (Macaca fascicularis (cynomolgus)); assay: SPR ProteOn, cynoPD1-ECD; RANGE low replicate
T6 construct: Expressed with a hexahistidine tag or as Fc fusion; also called cynoPD1-ECD; cynoPD-1-ECD
T6 chain: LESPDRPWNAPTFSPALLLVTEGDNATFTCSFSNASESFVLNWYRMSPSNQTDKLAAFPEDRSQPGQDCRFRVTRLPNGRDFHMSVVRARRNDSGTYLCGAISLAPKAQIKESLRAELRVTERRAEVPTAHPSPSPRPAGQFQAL
Procedure: (§2) Affinity measurements using Surface Plasmon Resonance (SPR) were performed using a ProteOn XPR36 system. A biosensor surface was prepared by coupling a mixture of anti-IgG Fc modified alginate polymer layer surface of a GLC chip using the manufacturer instructions for amine-coupling chemistry. […] The collected data were processed and fitted to a Langmuir 1:1 binding model. The result for each mAb was reported in the format of kₒₙ (On-rate), koff (Off-rate) and KD (equilibrium dissociation constant).
(§3) STDEV were calculated for 3 or more replicates generated for human and cyno proteins. If less than 3 replicates were calculated, RANGE was indicated. RANGE is defined as the low and high values for the replicates tested. For samples in the Table 10 or Table 11 without value indicated in RANGE or STDEV, only one experiment was performed.

[7] = biological target: T6, Extracellular domain of cyno PD1 …; assay: SPR ProteOn, captured mAb, cynoPD1-ECD analyte
Procedure: as §2, §3

[8] = biological target: T6, Extracellular domain of cyno PD1 …; assay: SPR ProteOn, cynoPD1-ECD; RANGE high replicate
Procedure: as §2, §3

[9] = biological target: T5, Extracellular domain of human PD1 …; assay: MSD ligand inhibition, competitor coated cynoPDL1-ECD
Procedure: The ligand inhibition assay design was MSD (Mescoscale Discovery) based. A MSD plate was directly coated with ligand (cynoPDL1-ECD, huPDL1-ECD or huPDL2-ECD) and incubated overnight at 4° C. The following day, the coating solution was removed and the plate was blocked. […] Depending on the panel of antibodies to be tested, the antibodies were tested as titrations or at a fixed concentration. […] The mAbs that were positive for inhibition of ligand binding at one concentration were also tested in dose responses for inhibition of various PD-1 ligands.
Select Fabs were cloned as IgG2sigma isotype and characterized for their Jurkat cell binding and cynomolgus PD-L1 ligand inhibition at concentrations 1 μg/ml and 10 μg/ml.

[10] = biological target: T6, Extracellular domain of cyno PD1 …; assay: SPR ProteOn, cynoPD1-ECD; RANGE high replicate; RANGE high replicate
Procedure: as §2, §3

[11] = biological target: T5, Extracellular domain of human PD1 …; assay: SPR ProteOn, captured mAb, huPD1-ECD analyte; approximation (chi2 > 20%)
Procedure: as §2
STDEV were calculated for 3 or more replicates generated for human and cyno proteins. If less than 3 replicates were calculated, RANGE was indicated. RANGE is defined as the low and high values for the replicates tested.

[12] = biological target: T4, Full length human PD1 (huPD1) on cells; assay: flow cytometry, PHA-stimulated Jurkat cells; remark: listed apart in the source
Procedure: as §1

[13] = biological target: T5, Extracellular domain of human PD1 …; assay: SPR ProteOn, huPD1-ECD; RANGE low replicate
Procedure: as §2
(§4) STDEV were calculated for 3 or more replicates generated for human and cyno proteins. If less than 3 replicates were calculated, RANGE is indicated. RANGE is defined as the low and high values for the replicates tested. For samples without RANGE or STDEV, only one experiment was performed

[14] = biological target: T5, Extracellular domain of human PD1 …; assay: SPR ProteOn, captured mAb, huPD1-ECD analyte; remark: listed apart in the source
Procedure: as §2, §4

[15] = biological target: T5, Extracellular domain of human PD1 …; assay: SPR ProteOn, huPD1-ECD; RANGE high replicate
Procedure: as §2, §4

[16] = biological target: T6, Extracellular domain of cyno PD1 …; assay: SPR ProteOn, cynoPD1-ECD; RANGE low replicate
Procedure: as §2, §4

[17] = biological target: T6, Extracellular domain of cyno PD1 …; assay: SPR ProteOn, captured mAb, cynoPD1-ECD analyte
Procedure: as §2, §4

[18] = biological target: T6, Extracellular domain of cyno PD1 …; assay: SPR ProteOn, cynoPD1-ECD; RANGE high replicate
Procedure: as §2, §4

[19] = biological target: T5, Extracellular domain of human PD1 …; assay: MSD ligand inhibition, competitor coated huPDL1-ECD
Procedure: (§5) The ligand inhibition assay design was MSD (Mescoscale Discovery) based. A MSD plate was directly coated with ligand (cynoPDL1-ECD, huPDL1-ECD or huPDL2-ECD) and incubated overnight at 4° C. The following day, the coating solution was removed and the plate was blocked. […] Depending on the panel of antibodies to be tested, the antibodies were tested as titrations or at a fixed concentration.

[20] = biological target: T5, Extracellular domain of human PD1 …; assay: MSD ligand inhibition, competitor coated huPDL2-ECD
Procedure: as §5

[21] = biological target: T5, Extracellular domain of human PD1 …; assay: MSD ligand inhibition, competitor coated cynoPDL1-ECD; remark: listed apart in the source
Procedure: as §5

[22] = biological target: T5, Extracellular domain of human PD1 …; assay: SPR ProteOn, captured mAb; antigen species not given
[23] = biological target: T5, Extracellular domain of human PD1 …; assay: SPR ProteOn, huPD1-ECD; RANGE high replicate; RANGE high replicate
Procedure: as §2, §4

[24] = biological target: T6, Extracellular domain of cyno PD1 …; assay: SPR ProteOn, cynoPD1-ECD; RANGE high replicate; RANGE high replicate
Procedure: as §2, §4

[25] = biological target: T4, Full length human PD1 (huPD1) on cells; assay: cell-based or functional assay
[26] = biological target: T6, Extracellular domain of cyno PD1 …; assay: SPR ProteOn, cynoPD1-ECD; RANGE low replicate; RANGE low replicate
Procedure: as §2, §4

T4 sequence (Q15116 25-288 limits assumed): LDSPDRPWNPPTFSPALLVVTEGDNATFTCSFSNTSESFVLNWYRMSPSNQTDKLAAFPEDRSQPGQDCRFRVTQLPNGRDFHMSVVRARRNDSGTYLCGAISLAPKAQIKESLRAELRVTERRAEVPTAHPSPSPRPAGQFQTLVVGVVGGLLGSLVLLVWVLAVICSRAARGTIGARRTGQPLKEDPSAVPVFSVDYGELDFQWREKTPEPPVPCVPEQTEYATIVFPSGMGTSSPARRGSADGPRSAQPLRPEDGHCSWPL
T5 sequence (Q15116 25-169 limits assumed): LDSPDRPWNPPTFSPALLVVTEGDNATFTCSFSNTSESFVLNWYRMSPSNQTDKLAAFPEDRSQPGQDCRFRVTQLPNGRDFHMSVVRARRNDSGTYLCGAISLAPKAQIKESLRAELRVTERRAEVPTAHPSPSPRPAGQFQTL

B1: TM3B190 (antibody, V domains shown)
VH: DVQLQESGPGLVKPSQSLSLTCTVTGYSITSDYAWNWIRQFPGNKLEWMGYINYSGRTSYNPSLKSRISITRDTSKNQFFLQLNSVTTEDTATYYCTSGGNFDYWGQGTTLTVSS
VL: DIVMTQSPSSMSASLGDRITITCQATQDIVKNLNWYQQKPGKPPSFLIHYVTELAEGVPSRFSGSGSGSDYSLTISNLESEDFADYYCLQFYEFPLTFGAGTKLELK
notes: Mouse-derived variable domains; also called TM3H96/TM3L62
EC50 [1]: 0.08 µg/mL | EC50 [2]: 0.35 µg/mL | Galectin 9 Inhibition, % inhibition (maximal) [3]: 60.7%

B2: PD1B149 (antibody, human IgG2, kappa, V domains shown)
VH: QVQLVQSGAEVKKPGSSVKVSCKASGGTFSSYAISWVRQAPGQGLEWMGGIIPIFGTANYAQKFQGRVTITADESTSTAYMELSSLRSEDTAVYYCARPGLAAAYDTGNLDYWGQGTLVTVSS
VL: EIVLTQSPATLSLSPGERATLSCRASQSVRNYLAWYQQKPGQAPRLLIHDASNRATGIPARFSGSGSGTDFTLTISSLEPEDFAVYYCQQRNYWPLTFGQGTKVEIKR
notes: IgG2sigma/kappa; VH 41, VL 50; also called PD1H24/PD1L128
EC50 [4]: 0.08 µg/mL | koff [5]: 0.0062 s⁻¹ | kon [5]: 532000 M⁻¹ s⁻¹ | Kd [6]: 10.9 nM | koff [6]: 0.00348 s⁻¹ | kon [6]: 304000 M⁻¹ s⁻¹ | Kd [7]: 11.2 nM | koff [7]: 0.00357 s⁻¹ | kon [7]: 320000 M⁻¹ s⁻¹ | Kd [8]: 11.4 nM | percentage ligand not blocked at 1 µg/ml [9]: 7% | percentage ligand not blocked at 10 µg/ml [9]: 7% | koff [10]: 0.00365 s⁻¹ | kon [10]: 336000 M⁻¹ s⁻¹ | Kd [11]: ~12 nM

B3: TM3B105 (antibody, human IgG2, kappa, V domains shown)
VH: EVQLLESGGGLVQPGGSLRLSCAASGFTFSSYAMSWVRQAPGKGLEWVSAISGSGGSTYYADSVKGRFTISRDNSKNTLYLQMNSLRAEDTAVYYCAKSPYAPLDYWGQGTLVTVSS
VL: EIVLTQSPATLSLSPGERATLSCRASQSVNDYLAWYQQKPGQAPRLLIYDASNRATGIPARFSGSGSGTDFTLTISSLEPEDFAVYYCQQGGHAPITFGQGTKVEIKR
notes: IgG2sigma/kappa; VH 146, VL 156; also called TM3H24/TM3L33
EC50 [1]: 0.03 µg/mL | EC50 [2]: 0.46 µg/mL | Galectin 9 Inhibition, % inhibition (maximal) [3]: 69.8%

B4: PD1B71 (antibody, V domains shown)
VH: QVQLVQSGAEVKKPGSSVKVSCKASGGTFSSYAISWVRQAPGQGLEWMGGIIPIFGTANYAQKFQGRVTITADESTSTAYMELSSLRSEDTAVYYCARGTLDRTGHLDYWGQGTLVTVSS
VL: EIVLTQSPATLSLSPGERATLSCRASQSVSSYLAWYQQKPGQAPRLLIYDASNRATGIPARFSGSGSGTDFTLTISSLEPEDFAVYYCQQRSNWPLTFGQGTKVEIK
notes: Tested as IgG2sigma/kappa; also called PD1H108/PH9L3
EC50 [12]: 0.13 to 0.47 µg/mL | EC50 [4]: 0.13 µg/mL | Kd [13]: 22.4 nM | koff [13]: 0.0219 s⁻¹ | kon [13]: 933000 M⁻¹ s⁻¹ | Kd [5]: 49.9 nM | koff [5]: 0.0273 s⁻¹ | kon [5]: 548000 M⁻¹ s⁻¹ | Kd [14]: 23.5 nM | koff [14]: 0.0225 s⁻¹ | kon [14]: 955000 M⁻¹ s⁻¹ | Kd [15]: 24.7 nM | kon [15]: 976000 M⁻¹ s⁻¹ | Kd [16]: 44.4 nM | koff [16]: 0.0185 s⁻¹ | kon [16]: 337000 M⁻¹ s⁻¹ | Kd [7]: 66.8 nM | koff [7]: 0.0203 s⁻¹ | kon [7]: 304000 M⁻¹ s⁻¹ | Kd [17]: 52 nM | koff [17]: 0.0196 s⁻¹ | kon [17]: 377000 M⁻¹ s⁻¹ | Kd [18]: 61.4 nM | IC50 [19]: 0.024 µg/mL | IC50 [20]: 0.035 µg/mL | IC50 [21]: 0.014 to 0.015 µg/mL | percentage ligand not blocked at 1 µg/ml [9]: 6% | percentage ligand not blocked at 10 µg/ml [9]: 9% | Kd [22]: 120 nM | koff [22]: 0.0277 s⁻¹ | kon [22]: 231000 M⁻¹ s⁻¹ | koff [23]: 0.023 s⁻¹ | koff [24]: 0.0207 s⁻¹ | kon [24]: 417000 M⁻¹ s⁻¹

B5: PD1B195 (antibody, V domains shown)
VH: QVQLVQSGAEVKKPGSSVKVSCKASGGTFSSYAISWVRQAPGQGLEWMGGIIPIFDTANYAQKFQGRVTITADESTSTAYMELSSLRSEDTAVYYCARPGLAAAYDTGSLDYWGQGTLVTVSS
VL: EIVLTQSPATLSLSPGERATLSCRASQSVDSYLAWYQQKPGQAPRLLIYDASNRATGIPARFSGSGSGTDFTLTISSLEPEDFAVYYCQQREYWPLTFGQGTKVEIK
notes: also called PD1H170/PD1L67
CMV EC50, nM (IFN-γ induction) [25]: 1.64 nM | Kd [14]: 1.23 nM | koff [14]: 0.00152 s⁻¹ | kon [14]: 1.23e+06 M⁻¹ s⁻¹ | Kd [16]: 0.91 nM | kon [16]: 430000 M⁻¹ s⁻¹ | Kd [17]: 0.94 nM | koff [17]: 0.000408 s⁻¹ | kon [17]: 432000 M⁻¹ s⁻¹ | Kd [18]: 0.97 nM | kon [18]: 434000 M⁻¹ s⁻¹ | koff [26]: 0.000396 s⁻¹ | koff [24]: 0.000419 s⁻¹

B6: TM3B189 (antibody, V domains shown)
VH: EVQLQQSGPELLKPGASVKMSCKASGYTFTSYVMYWVKQKPGQGLEWIGYINPYNDGTKYNEKFKGKATLTSDKSSSTAYMELSRLTSEDSAVYYCTRDDYDVAPFAYWGQGTLVTVSA
VL: DIVLTQSPASLAVSLGQRATISCRASESLDSYGNSYIHWYQQKPGQPPKLLIYLASNLESGVPARFSGSGSKTDFTLTIDPVEADDPATYYCQQNNEDPFTFGSGTKLEIK
notes: Mouse-derived variable domains; also called TM3H141/TM3L61
EC50 [1]: 0.19 µg/mL | EC50 [2]: 0.74 µg/mL | Galectin 9 Inhibition, % inhibition (maximal) [3]: 76.4%
